Source: US20190382483A1 (published 2019)

T1: Recombinant hSIRPg-His (Sino Biologicals, reference 11828-H08H) (human, UniProt Q9P1W8 29-360)
T1 chain: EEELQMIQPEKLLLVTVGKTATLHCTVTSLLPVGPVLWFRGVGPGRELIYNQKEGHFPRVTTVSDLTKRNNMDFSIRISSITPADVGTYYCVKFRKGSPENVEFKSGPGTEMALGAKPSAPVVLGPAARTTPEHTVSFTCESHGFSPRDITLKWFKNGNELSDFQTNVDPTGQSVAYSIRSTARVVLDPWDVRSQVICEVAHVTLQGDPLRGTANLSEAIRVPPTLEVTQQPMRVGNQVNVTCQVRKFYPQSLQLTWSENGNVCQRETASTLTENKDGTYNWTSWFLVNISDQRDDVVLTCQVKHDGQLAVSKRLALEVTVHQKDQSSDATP


Target: T1, Recombinant hSIRPg-His (Sino …)
Assay: Blitz (BLI)

Row | Kd | Binder
1 | 5.3 nM | SIRP29 (antibody, V domains shown) VH: EVQLQQSGAELVKPGASVKLSCTASGFNIKDYYIHWVQQRTEQGLEWIGRIDPEDGETKYAPKFQDKATITADTSSNTAYLHLSSLTSEDTAVYYCARWGAYWGQGTLVTVSS VL: QIVLTQSPAIMSASPGEKVTLTCSASSSVSSSYLYWYQQKPGSSPKLWIYSTSNLASGVPARFSGSGSGTSYSLTISSMEAEDAASYFCHQWSSYPRTFGAGTKLELK
2 | 2.14 nM | Kwar23 (antibody, V domains shown) VH: EVQLQQSGAELVKPGASVKLSCTASGFNIKDYYIHWVQQRTEQGLEWIGRIDPEDGETKYAPKFQDKATITADTSSNTAYLHLSSLTSEDTAVYYCARWGAYWGQGTLVTVSS VL: QIVLTQSPAIMSASPGEKVTLTCSASSSVSSSYLYWYQQKPGSSPKLWIYSTSNLASGVPARFSGSGSGTSYSLTISSMEAEDAASYFCHQWSSYPRTFGAGTKLELK
